Assay [1] addresses T1, human GLP-1 receptor (human, UniProt P43220 24-463). In words: cell-based or functional assay.
The target of assay [2] is T2, human glucagon receptor (human, UniProt P47871 26-477). In words: cell-based or functional assay.
The target in assay [3] is T1, human GLP-1 receptor. The experiment in a line: displacement of [125I]-GLP-1-(7-36)NH2 from BHK membranes with human GLP-1R, SPA, no serum albumin. Background: Displacement assays read how much labelled ligand stays bound in the presence of the test substance.
The target in assay [4] is T2, human glucagon receptor. The experiment in a line: displacement of [125I]-glucagon from BHK membranes with human glucagon receptor, SPA, no serum albumin.

The results in this text go back to US20170101454A1 (Novo Nordisk, published 2017).

Starred links: 1 amine or outer side, 2 acyl side, 3 side chain; linkers in the order of their positions; H or OH if unused. Non-standard residues stand in square brackets, D forms with d. Groups on a side chain read outwards from the residue. No end group written: not given here. *: point of attachment. C18 diacid = O=C(O)CCCCCCCCCCCCCCCCC(=O)*; γGlu = O=C(O)[C@H](CCC(=O)[*:2])N[*:1]; AEEA = NCCOCCOCC(=O)O; Aib = CC(C)(N)C(=O)O

T2 sequence (P47871 26-477): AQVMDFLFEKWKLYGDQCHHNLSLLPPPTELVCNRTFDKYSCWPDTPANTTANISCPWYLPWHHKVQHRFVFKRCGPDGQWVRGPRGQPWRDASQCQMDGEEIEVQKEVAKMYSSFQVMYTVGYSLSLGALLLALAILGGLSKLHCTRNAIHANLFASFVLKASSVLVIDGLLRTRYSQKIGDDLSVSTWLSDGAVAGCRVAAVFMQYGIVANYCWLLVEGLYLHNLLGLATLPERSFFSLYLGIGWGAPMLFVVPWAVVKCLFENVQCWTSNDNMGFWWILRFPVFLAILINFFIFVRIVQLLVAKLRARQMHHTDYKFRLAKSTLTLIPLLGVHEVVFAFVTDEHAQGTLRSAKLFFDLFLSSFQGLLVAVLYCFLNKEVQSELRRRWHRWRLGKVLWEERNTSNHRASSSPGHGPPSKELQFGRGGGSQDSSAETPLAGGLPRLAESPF

B1: N^ε29-[(4S)-4-carboxy-4-[[(4S)-4-carboxy-4-[[2-[2-[2-[[2-[2-[2-[[(4S)-4-carboxy-4-(17-carboxyheptadecanoylamino)butanoyl]amino]ethoxy]ethoxy]acetyl]amino]ethoxy … (peptide)
peptide: H[Aib]QGTFTSDLSKYLDARRAREFVQWLINK([γGlu-γGlu-AEEA-AEEA-γGlu-C18 diacid])-NH2
modifications: N-terminus assumed
SMILES: CC[C@H](C)[C@H](NC(=O)[C@H](CC(C)C)NC(=O)[C@H](Cc1c[nH]c2ccccc12)NC(=O)[C@H](CCC(N)=O)NC(=O)[C@@H](NC(=O)[C@H](Cc1ccccc1)NC(=O)[C@H](CCC(=O)O)NC(=O)[C@H](CCCNC(=N)N)NC(=O)[C@H](C)NC(=O)[C@H](CCCNC(=N)N)NC(=O)[C@H](CCCNC(=N)N)NC(=O)[C@H](C)NC(=O)[C@H](CC(=O)O)NC(=O)[C@H](CC(C)C)NC(=O)[C@H](Cc1ccc(O)cc1)NC(=O)[C@H](CCCCN)NC(=O)[C@H](CO)NC(=O)[C@H](CC(C)C)NC(=O)[C@H](CC(=O)O)NC(=O)[C@H](CO)NC(=O)[C@@H](NC(=O)[C@H](Cc1ccccc1)NC(=O)[C@@H](NC(=O)CNC(=O)[C@H](CCC(N)=O)NC(=O)C(C)(C)NC(=O)[C@@H](N)Cc1c[nH]cn1)[C@@H](C)O)[C@@H](C)O)C(C)C)C(=O)N[C@@H](CC(N)=O)C(=O)N[C@@H](CCCCNC(=O)CC[C@H](NC(=O)CC[C@H](NC(=O)COCCOCCNC(=O)COCCOCCNC(=O)CC[C@H](NC(=O)CCCCCCCCCCCCCCCCC(=O)O)C(=O)O)C(=O)O)C(=O)O)C(N)=O
notes: also called Chem. 21; Chem 21
Broadly, the IC50 is the concentration that inhibits the measured activity by half. High values mean a need for much substance, low ones inhibition by little substance. Consider B1, for which the “GLP-1R EC50 (pM) [Assay (I)(a)], CRE luciferase reporter, BHK cells” value (from here on “GLP-1R EC50 (pM) [Assay (I)(a)]”) with human GLP-1 receptor [1] was 3 pM. Also, the “GlucagonR EC50 (pM), [Assay (I)(b)], CRE luciferase reporter, BHK cells” value (shortened to “GlucagonR EC50 (pM), [Assay (I)(b)]”) with human glucagon receptor [2] was found to be 31 pM. Moreover, the IC50 in the assay with human GLP-1 receptor [3] stood at 0.1 nM; with human glucagon receptor [4], 8.7 nM.

B2: N^ε29-[(4S)-4-carboxy-4-[[(4S)-4-carboxy-4-[[2-[2-[2-[[2-[2-[2-[[(4S)-4-carboxy-4-(17-carboxyheptadecanoylamino)butanoyl]amino]ethoxy]ethoxy]acetyl]amino]ethoxy … (peptide)
peptide: H[Aib]QGTFTSDLSKYLDARRAREFVQWLISK([γGlu-γGlu-AEEA-AEEA-γGlu-C18 diacid])-NH2
modifications: N-terminus assumed
SMILES: CC[C@H](C)[C@H](NC(=O)[C@H](CC(C)C)NC(=O)[C@H](Cc1c[nH]c2ccccc12)NC(=O)[C@H](CCC(N)=O)NC(=O)[C@@H](NC(=O)[C@H](Cc1ccccc1)NC(=O)[C@H](CCC(=O)O)NC(=O)[C@H](CCCNC(=N)N)NC(=O)[C@H](C)NC(=O)[C@H](CCCNC(=N)N)NC(=O)[C@H](CCCNC(=N)N)NC(=O)[C@H](C)NC(=O)[C@H](CC(=O)O)NC(=O)[C@H](CC(C)C)NC(=O)[C@H](Cc1ccc(O)cc1)NC(=O)[C@H](CCCCN)NC(=O)[C@H](CO)NC(=O)[C@H](CC(C)C)NC(=O)[C@H](CC(=O)O)NC(=O)[C@H](CO)NC(=O)[C@@H](NC(=O)[C@H](Cc1ccccc1)NC(=O)[C@@H](NC(=O)CNC(=O)[C@H](CCC(N)=O)NC(=O)C(C)(C)NC(=O)[C@@H](N)Cc1c[nH]cn1)[C@@H](C)O)[C@@H](C)O)C(C)C)C(=O)N[C@@H](CO)C(=O)N[C@@H](CCCCNC(=O)CC[C@H](NC(=O)CC[C@H](NC(=O)COCCOCCNC(=O)COCCOCCNC(=O)CC[C@H](NC(=O)CCCCCCCCCCCCCCCCC(=O)O)C(=O)O)C(=O)O)C(=O)O)C(N)=O
notes: also called Chem. 28; Chem 28
Consider B2, for which, in the assay with human GLP-1 receptor [1], the “GLP-1R EC50 (pM) [Assay (I)(a)]” value turned out to be 3 pM. For the same molecule, the “GlucagonR EC50 (pM), [Assay (I)(b)]” value in the assay with human glucagon receptor [2] was 36 pM. The IC50 was 0.2 nM with human GLP-1 receptor [3] and 8.6 nM with human glucagon receptor [4].

B3: N^ε29-[(4S)-4-carboxy-4-[[(4S)-4-carboxy-4-[[2-[2-[2-[[2-[2-[2-[[(4S)-4-carboxy-4-(17-carboxyheptadecanoylamino)butanoyl]amino]ethoxy]ethoxy]acetyl]amino]ethoxy … (peptide)
peptide: H[Aib]QGTFTSDLSKYLDARRARDFVQWLISK([γGlu-γGlu-AEEA-AEEA-γGlu-C18 diacid])-NH2
modifications: N-terminus assumed
SMILES: CC[C@H](C)[C@H](NC(=O)[C@H](CC(C)C)NC(=O)[C@H](Cc1c[nH]c2ccccc12)NC(=O)[C@H](CCC(N)=O)NC(=O)[C@@H](NC(=O)[C@H](Cc1ccccc1)NC(=O)[C@H](CC(=O)O)NC(=O)[C@H](CCCNC(=N)N)NC(=O)[C@H](C)NC(=O)[C@H](CCCNC(=N)N)NC(=O)[C@H](CCCNC(=N)N)NC(=O)[C@H](C)NC(=O)[C@H](CC(=O)O)NC(=O)[C@H](CC(C)C)NC(=O)[C@H](Cc1ccc(O)cc1)NC(=O)[C@H](CCCCN)NC(=O)[C@H](CO)NC(=O)[C@H](CC(C)C)NC(=O)[C@H](CC(=O)O)NC(=O)[C@H](CO)NC(=O)[C@@H](NC(=O)[C@H](Cc1ccccc1)NC(=O)[C@@H](NC(=O)CNC(=O)[C@H](CCC(N)=O)NC(=O)C(C)(C)NC(=O)[C@@H](N)Cc1c[nH]cn1)[C@@H](C)O)[C@@H](C)O)C(C)C)C(=O)N[C@@H](CO)C(=O)N[C@@H](CCCCNC(=O)CC[C@H](NC(=O)CC[C@H](NC(=O)COCCOCCNC(=O)COCCOCCNC(=O)CC[C@H](NC(=O)CCCCCCCCCCCCCCCCC(=O)O)C(=O)O)C(=O)O)C(=O)O)C(N)=O
notes: also called Chem. 27; Chem 27
Turning to B3, the “GLP-1R EC50 (pM) [Assay (I)(a)]” value with human GLP-1 receptor [1] came out at 3 pM. Besides, the “GlucagonR EC50 (pM), [Assay (I)(b)]” value with human glucagon receptor [2] worked out at 66 pM. For the same molecule, the IC50 with human GLP-1 receptor [3] amounted to 0.2 nM; with human glucagon receptor [4], 19.1 nM.

B4: N^ε29-[(4S)-4-carboxy-4-[[(4S)-4-carboxy-4-[[2-[2-[2-[[2-[2-[2-[[(4S)-4-carboxy-4-(17-carboxyheptadecanoylamino)butanoyl]amino]ethoxy]ethoxy]acetyl]amino]ethoxy … (peptide)
chain: H[Aib]QGTFTSDLSKYLDLRRARDFVAWLINK([γGlu-γGlu-AEEA-AEEA-γGlu-C18 diacid])-NH2
modifications: N-terminus assumed
SMILES: CC[C@H](C)[C@H](NC(=O)[C@H](CC(C)C)NC(=O)[C@H](Cc1c[nH]c2ccccc12)NC(=O)[C@H](C)NC(=O)[C@@H](NC(=O)[C@H](Cc1ccccc1)NC(=O)[C@H](CC(=O)O)NC(=O)[C@H](CCCNC(=N)N)NC(=O)[C@H](C)NC(=O)[C@H](CCCNC(=N)N)NC(=O)[C@H](CCCNC(=N)N)NC(=O)[C@H](CC(C)C)NC(=O)[C@H](CC(=O)O)NC(=O)[C@H](CC(C)C)NC(=O)[C@H](Cc1ccc(O)cc1)NC(=O)[C@H](CCCCN)NC(=O)[C@H](CO)NC(=O)[C@H](CC(C)C)NC(=O)[C@H](CC(=O)O)NC(=O)[C@H](CO)NC(=O)[C@@H](NC(=O)[C@H](Cc1ccccc1)NC(=O)[C@@H](NC(=O)CNC(=O)[C@H](CCC(N)=O)NC(=O)C(C)(C)NC(=O)[C@@H](N)Cc1c[nH]cn1)[C@@H](C)O)[C@@H](C)O)C(C)C)C(=O)N[C@@H](CC(N)=O)C(=O)N[C@@H](CCCCNC(=O)CC[C@H](NC(=O)CC[C@H](NC(=O)COCCOCCNC(=O)COCCOCCNC(=O)CC[C@H](NC(=O)CCCCCCCCCCCCCCCCC(=O)O)C(=O)O)C(=O)O)C(=O)O)C(N)=O
For the molecule B4, in the assay with human GLP-1 receptor [1], the “GLP-1R EC50 (pM) [Assay (I)(a)]” value was 3 pM. In addition, the “GlucagonR EC50 (pM), [Assay (I)(b)]” value with human glucagon receptor [2] is 55 pM. Also, the IC50 in the assay with human GLP-1 receptor [3] is 0.4 nM; in the assay with human glucagon receptor [4], 14 nM.
